Experimental data from patent US20170354129A1 (NATIONAL AGRICULTURE AND FOOD RESEARCH ORGANIZATION, published 2017).

Experiments:
fully oxidized LDL [1] = target: T1, fully oxidized LDL (UniProt P04114 28-4563, oxidatively modified with copper for 20 hours at 37 C (sites not given)); experiment: direct ELISA, lowest antigen amount at which detection was possible
T1 construct: Lipoprotein particle; also called fuOxLDL; FoxLDL
Protocol: (§1) Antigen recognition activity of a purified single chain antibody was evaluated by direct ELISA. LDLs, acetylated LDLs, partially oxidized LDLs, and fully oxidized LDLs were used as antigens. 0.05 to 10 μg/ml of antigen solution was added to a polystyrene 96-well microwell plate at 100 μl/well and allowed to adsorb overnight at 4° C. The plate was washed three times with PBS (200 μl/well). Blocking buffer (0.25% BSA/PBS) was added at 200 μl/well. The mixture was left standing for 2 hours at room temperature. After the plate was washed three times with PBS (200 μl/well), 2.5 μg/ml/PBS single chain antibody was added at 100 μl/well and reacted for 1 hour at room temperature. The plate was washed five times with PBS (200 μl/well) and anti-His-HRP antibody diluted 1000-fold with blocking buffer was added at 100 μl/well and reacted for 1 hour at room temperature. After washing the plate five times with PBS (200 μl/well), 3,3′,5,5′-tetramethyl-benzidine (TMB) was added at 50 μl/well. The luminescence was examined and 150μ/well of 1N HCl was added to suspend the reaction. Subsequently, the absorbance at 450 nm for each well of the plate was measured (FIG. 11).
(§2) The detection limit was calculated as the detection limit at the lowest concentration at which detection was possible in measured specimens at different dilution levels.

acetylated LDL = target: T2, acetylated LDL (UniProt P04114 28-4563, acetylated (sites not given)); experiment: as above
T2 construct: Lipoprotein particle; also called AcLDL; Ac LDLs
Protocol: as §1, §2

[2] = target: T3, LDL (unmodified low density lipoprotein) (UniProt P04114 28-4563); experiment: as above
T3 construct: Lipoprotein particle, not a pure protein; also called LDLs; unmodified LDL
Protocol: as §1, §2

partially oxidized LDL = target: T4, partially oxidized LDL (UniProt P04114 28-4563, oxidatively modified with copper for 4 hours at 37 C (sites not given)); experiment: as above
T4 construct: Lipoprotein particle; also called moOxLDL; moLDL
Protocol: as §1, §2

fully oxidized LDL [3] = target: T1, fully oxidized LDL; experiment: phage ELISA on oxidized LDL
[4] = target: T5, F-AGE (AGEs prepared by fructose treatment of BSA) (bovine, UniProt P02769 25-607, glycated by fructose, 37 C for 12 weeks (sites not given)); experiment: SPR single cycle kinetics, biotinylated sRAGE on a streptavidin (SA) chip, F-AGE as analyte
T5 construct: also called F-AGEs; fructose treated BSA
T5 sequence (P02769 25-607 limits assumed): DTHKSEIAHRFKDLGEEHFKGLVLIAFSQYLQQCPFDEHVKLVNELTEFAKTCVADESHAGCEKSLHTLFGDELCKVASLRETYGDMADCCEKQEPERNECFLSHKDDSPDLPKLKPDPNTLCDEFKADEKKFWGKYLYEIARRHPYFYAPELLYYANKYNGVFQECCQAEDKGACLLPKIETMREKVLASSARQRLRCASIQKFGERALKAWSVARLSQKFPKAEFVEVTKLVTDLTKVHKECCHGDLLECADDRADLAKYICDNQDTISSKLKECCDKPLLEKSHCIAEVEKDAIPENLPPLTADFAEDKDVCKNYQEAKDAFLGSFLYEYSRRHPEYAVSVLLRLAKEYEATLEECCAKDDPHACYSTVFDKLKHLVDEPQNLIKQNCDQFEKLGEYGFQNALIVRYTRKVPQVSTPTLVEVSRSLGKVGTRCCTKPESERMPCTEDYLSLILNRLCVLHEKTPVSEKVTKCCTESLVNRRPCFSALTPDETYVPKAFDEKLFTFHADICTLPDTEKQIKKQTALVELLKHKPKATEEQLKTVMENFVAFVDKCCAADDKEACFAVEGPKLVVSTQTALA

T1 sequence (P04114 28-4563): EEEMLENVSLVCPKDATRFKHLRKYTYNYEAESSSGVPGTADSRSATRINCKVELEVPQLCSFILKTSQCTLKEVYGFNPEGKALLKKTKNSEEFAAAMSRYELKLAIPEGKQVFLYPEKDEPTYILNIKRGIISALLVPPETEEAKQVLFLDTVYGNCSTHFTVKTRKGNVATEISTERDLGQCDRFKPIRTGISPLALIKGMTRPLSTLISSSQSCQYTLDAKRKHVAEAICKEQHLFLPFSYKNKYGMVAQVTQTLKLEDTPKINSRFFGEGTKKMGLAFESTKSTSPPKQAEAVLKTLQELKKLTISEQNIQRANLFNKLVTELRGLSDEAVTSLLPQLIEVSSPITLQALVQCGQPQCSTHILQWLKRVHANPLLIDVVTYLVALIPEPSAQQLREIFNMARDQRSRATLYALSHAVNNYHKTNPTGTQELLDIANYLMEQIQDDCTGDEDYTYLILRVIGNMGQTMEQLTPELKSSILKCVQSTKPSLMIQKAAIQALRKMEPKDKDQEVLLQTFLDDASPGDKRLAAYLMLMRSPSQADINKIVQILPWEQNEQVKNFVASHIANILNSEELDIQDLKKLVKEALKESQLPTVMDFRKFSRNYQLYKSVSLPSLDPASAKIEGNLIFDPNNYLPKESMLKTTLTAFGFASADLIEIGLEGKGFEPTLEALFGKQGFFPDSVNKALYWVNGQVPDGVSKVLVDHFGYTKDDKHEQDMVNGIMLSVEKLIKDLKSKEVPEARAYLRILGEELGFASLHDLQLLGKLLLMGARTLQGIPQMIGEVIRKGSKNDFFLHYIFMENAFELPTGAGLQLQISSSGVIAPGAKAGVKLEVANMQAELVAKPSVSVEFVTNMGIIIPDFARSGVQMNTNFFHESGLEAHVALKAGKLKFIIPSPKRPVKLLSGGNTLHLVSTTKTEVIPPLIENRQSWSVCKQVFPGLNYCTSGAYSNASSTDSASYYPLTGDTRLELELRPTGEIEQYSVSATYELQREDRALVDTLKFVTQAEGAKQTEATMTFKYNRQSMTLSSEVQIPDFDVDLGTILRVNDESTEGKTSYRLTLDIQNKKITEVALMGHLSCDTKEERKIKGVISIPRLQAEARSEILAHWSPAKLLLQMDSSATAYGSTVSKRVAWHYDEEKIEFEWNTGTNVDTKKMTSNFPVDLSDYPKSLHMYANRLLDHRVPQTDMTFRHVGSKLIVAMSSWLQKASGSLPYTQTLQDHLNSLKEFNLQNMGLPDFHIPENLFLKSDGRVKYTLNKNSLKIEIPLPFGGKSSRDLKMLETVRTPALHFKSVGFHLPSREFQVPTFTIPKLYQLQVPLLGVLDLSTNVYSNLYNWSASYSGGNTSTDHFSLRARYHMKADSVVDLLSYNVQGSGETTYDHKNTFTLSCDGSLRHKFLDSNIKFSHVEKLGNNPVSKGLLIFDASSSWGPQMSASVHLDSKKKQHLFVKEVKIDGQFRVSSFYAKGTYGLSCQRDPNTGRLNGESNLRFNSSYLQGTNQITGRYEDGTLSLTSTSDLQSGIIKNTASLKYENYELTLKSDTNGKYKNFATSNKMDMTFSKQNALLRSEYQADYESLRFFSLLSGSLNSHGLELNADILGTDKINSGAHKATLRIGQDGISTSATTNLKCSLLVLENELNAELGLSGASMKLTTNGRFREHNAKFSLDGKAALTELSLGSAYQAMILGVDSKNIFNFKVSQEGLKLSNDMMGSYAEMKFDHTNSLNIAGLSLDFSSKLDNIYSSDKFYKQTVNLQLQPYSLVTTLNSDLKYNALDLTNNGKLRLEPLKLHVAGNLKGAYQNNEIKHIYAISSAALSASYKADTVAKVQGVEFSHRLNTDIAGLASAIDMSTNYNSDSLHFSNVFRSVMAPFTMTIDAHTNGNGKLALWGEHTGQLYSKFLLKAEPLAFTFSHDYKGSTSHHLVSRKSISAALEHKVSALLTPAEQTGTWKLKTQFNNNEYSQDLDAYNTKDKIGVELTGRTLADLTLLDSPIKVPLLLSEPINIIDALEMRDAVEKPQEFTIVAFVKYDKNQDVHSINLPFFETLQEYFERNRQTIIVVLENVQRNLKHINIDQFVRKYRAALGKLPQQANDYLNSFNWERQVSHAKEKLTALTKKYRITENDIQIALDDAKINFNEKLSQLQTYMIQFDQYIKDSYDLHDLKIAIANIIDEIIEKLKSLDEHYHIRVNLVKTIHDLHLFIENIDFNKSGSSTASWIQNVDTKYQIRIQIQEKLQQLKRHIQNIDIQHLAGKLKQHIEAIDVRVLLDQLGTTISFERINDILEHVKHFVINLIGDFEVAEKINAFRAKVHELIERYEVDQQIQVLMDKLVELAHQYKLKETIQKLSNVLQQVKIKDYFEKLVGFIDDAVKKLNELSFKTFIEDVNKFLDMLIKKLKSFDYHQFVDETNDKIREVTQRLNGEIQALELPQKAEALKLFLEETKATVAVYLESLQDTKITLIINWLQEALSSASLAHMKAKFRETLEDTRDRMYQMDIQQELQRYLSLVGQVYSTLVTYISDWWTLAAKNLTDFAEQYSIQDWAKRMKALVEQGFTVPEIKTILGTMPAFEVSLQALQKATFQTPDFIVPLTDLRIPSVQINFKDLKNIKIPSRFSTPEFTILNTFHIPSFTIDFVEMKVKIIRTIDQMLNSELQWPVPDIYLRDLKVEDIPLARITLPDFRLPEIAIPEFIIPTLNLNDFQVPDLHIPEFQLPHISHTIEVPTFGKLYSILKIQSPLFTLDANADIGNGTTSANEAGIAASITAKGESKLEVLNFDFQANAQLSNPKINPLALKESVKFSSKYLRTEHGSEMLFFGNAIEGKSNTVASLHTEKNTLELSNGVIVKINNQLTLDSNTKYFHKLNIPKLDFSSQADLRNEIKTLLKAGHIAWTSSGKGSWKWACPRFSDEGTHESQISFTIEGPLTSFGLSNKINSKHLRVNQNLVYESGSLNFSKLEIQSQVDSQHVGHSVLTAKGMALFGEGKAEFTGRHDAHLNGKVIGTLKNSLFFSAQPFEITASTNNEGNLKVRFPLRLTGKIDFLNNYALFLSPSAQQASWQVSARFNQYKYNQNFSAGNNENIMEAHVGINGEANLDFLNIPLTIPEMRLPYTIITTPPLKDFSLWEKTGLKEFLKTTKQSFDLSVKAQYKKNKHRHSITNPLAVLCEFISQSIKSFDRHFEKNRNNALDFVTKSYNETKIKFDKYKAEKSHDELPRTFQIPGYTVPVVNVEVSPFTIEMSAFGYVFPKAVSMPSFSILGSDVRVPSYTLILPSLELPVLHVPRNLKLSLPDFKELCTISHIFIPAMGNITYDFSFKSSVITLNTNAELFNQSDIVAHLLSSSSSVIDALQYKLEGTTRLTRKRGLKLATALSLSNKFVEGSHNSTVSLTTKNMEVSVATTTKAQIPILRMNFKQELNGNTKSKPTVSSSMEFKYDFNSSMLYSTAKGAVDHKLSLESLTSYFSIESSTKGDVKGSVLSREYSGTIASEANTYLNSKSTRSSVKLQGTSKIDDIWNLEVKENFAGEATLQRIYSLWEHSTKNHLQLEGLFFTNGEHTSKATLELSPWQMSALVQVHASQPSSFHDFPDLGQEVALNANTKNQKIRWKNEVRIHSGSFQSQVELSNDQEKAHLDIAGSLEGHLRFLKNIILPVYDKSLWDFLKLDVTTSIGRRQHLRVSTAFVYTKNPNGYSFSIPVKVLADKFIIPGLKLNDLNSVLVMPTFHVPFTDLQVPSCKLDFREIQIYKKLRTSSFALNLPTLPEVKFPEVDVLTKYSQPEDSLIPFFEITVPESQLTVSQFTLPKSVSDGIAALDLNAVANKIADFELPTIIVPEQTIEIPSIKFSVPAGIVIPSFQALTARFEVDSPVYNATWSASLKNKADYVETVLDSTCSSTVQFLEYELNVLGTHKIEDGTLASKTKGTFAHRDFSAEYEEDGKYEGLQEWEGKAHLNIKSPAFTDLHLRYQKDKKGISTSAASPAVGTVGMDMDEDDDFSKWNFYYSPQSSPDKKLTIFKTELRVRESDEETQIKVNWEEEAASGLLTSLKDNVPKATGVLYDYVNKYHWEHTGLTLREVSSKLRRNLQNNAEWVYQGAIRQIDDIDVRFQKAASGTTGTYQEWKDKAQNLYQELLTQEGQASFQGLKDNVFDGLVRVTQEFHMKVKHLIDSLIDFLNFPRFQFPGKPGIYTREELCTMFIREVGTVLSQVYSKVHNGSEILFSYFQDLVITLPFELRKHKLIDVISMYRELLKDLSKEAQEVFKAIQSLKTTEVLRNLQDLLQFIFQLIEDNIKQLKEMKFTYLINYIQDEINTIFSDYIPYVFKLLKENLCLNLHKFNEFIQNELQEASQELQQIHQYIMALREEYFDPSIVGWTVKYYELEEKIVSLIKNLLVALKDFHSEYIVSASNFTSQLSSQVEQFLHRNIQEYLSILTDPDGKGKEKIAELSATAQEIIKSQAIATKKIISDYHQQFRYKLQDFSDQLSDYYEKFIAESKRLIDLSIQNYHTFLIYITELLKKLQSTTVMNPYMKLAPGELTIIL
T2 sequence (P04114 28-4563): as above

B1: single chain antibody γ+κ 5 expressed from pET-22b(+) in E. coli BL21 (DE3), refolded and purified (scFv)
scFv: MAQVQLQQSGPGLVKPSQTLSLTCAISGDSVSSRDAAWNWIRQSPSRGLEWLGRTYYRSEWYTDYAVSLESRLTVNPDTSRNQFSLQLNSVTPEDTAVYLCARGSSWGHAPAFFDYWGQGTLVTVSSGGGGSGGGGSGGGGSDIQMTQSPSSLSASVEDRVAITCRASQSVSTYVAWYQQKPGKAPKLLISQASSLENGVPSRFSGSGSGTDFTLTISSLQPEDFATYYCQQYTTYPYTFGQGTKLEIKR
notes: Human scFv (VH gamma - linker - V kappa) from a spleen library; detected through its His tag with anti-His-HRP; also called clone No. 5; purified single chain antibody; not shown: C-terminal His tag from pET-22b(+) (XhoI cloning)
detection limit (fully oxidized LDL [1]): 20 ng/100 µl well
detection limit (acetylated LDL): 10 ng/100 µl well
detection limit [2]: 5 ng/100 µl well
detection limit (partially oxidized LDL): 10 ng/100 µl well

B2: single chain antibody γ+κ 5, pCANTAB5E clone 5 (phage presented and soluble forms) (scFv)
scFv: MAQVQLQQSGPGLVKPSQTLSLTCAISGDSVSSRDAAWNWIRQSPSRGLEWLGRTYYRSEWYTDYAVSLESRLTVNPDTSRNQFSLQLNSVTPEDTAVYLCARGSSWGHAPAFFDYWGQGTLVTVSSGGGGSGGGGSGGGGSDIQMTQSPSSLSASVEDRVAITCRASQSVSTYVAWYQQKPGKAPKLLISQASSLENGVPSRFSGSGSGTDFTLTISSLQPEDFATYYCQQYTTYPYTFGQGTKLEIKR
notes: the phage-presented and the soluble form are kept under one id, the assay field tells which was used; not shown: C-terminal E tag from pCANTAB5E (phage form: fused to the phage coat protein)
A450 (fully oxidized LDL [3]): ≥ 0.6 A450

B3: single chain antibody γ+κ 12, pCANTAB5E clone 12 (phage presented and soluble forms) (scFv)
scFv: MAQVQLQQSGPGLVKPSQTLSLTCDISGDSISTNGAAWNWIRQSPSRGLEWLGRTFYRSKWYNDYAVSVKSRMIINPDTSKNQFSLQLSSVTPEDTAVYYCARVACSGGTCLDGIDVWGQGTTVTVSSGGGGSGGGGSGGGGSDIVMTQSPSSLSASVGERVTITCRASQAIRNDLGWYQQKPGKAPKLLVYSASNLQSGVPSRFSGSGSGTDFTLTISSLQPEDFATYYCQQYHSYPRTFSQGTKLEIKR
notes: not shown: C-terminal E tag from pCANTAB5E
A450 (fully oxidized LDL [3]): ≥ 0.6 A450

B4: single chain antibody γ+κ 40, pCANTAB5E clone 40 (phage presented and soluble forms) (scFv)
scFv: MAQVQLVQSGVELRKPGDSVKVSCKASGYSVNTHGMSWVRQAPGQGLEWLGRISSYIGLTKFAQKFQDRVTLTTDTSTNTAYLEMRSLKSDDTAVYFCGRDDYEYDAFDVWGQGTMVTVSSGGGGSGGGGSSGGGSEIVLTQSPATLSVSPGERATLSCRTTESVTDSQLAWYQQKPGQAPRLLIYGPSTRATGIPDRFSGSGSGTDFTLTISGLEPEDFAVYYCQQRNSWYTFGQGTKLEIKR
notes: as for B3
A450 (fully oxidized LDL [3]): ≥ 0.6 A450

B5: single chain antibody γ+κ 19, pCANTAB5E clone 19 (phage presented and soluble forms) (scFv)
scFv: MAEVQLVESGAEVKNPGASVKVSCKASGYTLTGYYMHWVRQAPGQGLEWMGGIIPMYGTPTYAPRFQGRVTFTADYSTNTVYMELRSLRSEDTAVFYCARQADSASYLDYWGQGTLVTVSSGGGGSGGGGSGGGGSDVVMTQSPGTLSLSPGERATLSCRASQSLDSSYLAWYQQKPGRAPRLLIYGASDRDTGIPDRFSGSGSGTDFTLTISRLEPEDFAVYYCQQYGRSRTFGQGTKLEIKR
notes: as for B3
A450 (fully oxidized LDL [3]): ≥ 0.6 A450

B6: silkworm form biotinylated sRAGE (silkworm coexpressing BirA, biotin feed, Example 19) (receptor)
chain: GHHHHHHHHHHSSGHIDDDDKHMAQNITARIGEPLVLKCKGAPKKPPQRLEWKLNTGRTEAWKVLSPQGGGPWDSVARVLPNGSLFLPAVGIQDEGIFRCQAMNRNGKETKSNYRVRVYQIPGKPEIVDSASELTAGVPNKVGTCVSEGSYPAGTLSWHLDGKPLVPNEKGVSVKEQTRRHPETGLFTLQSELMVTPARGGDPRPTFSCSFSPGLPRHRALRTAPIQPRVWEPVPLEEVQLVVEPEGGAVAPGGTVTLTCEVPAQPSPQIHWMKDGVPLPLPPSPVLILPEIGPQDQGTYSCVATHSSHGPQESRAVSISIIEPGEEGPTAGSRSGAGTPVTAPLAGTIWKVLASEGQTVAAGEVLLILEAMKMETEIRAAQAGTVRGIAVKAGDAVAVGDTLMTLAGTKLGPEQKLISEEDLNSAVDHHHHHH
modifications: a single biotin on the biotinylation tag; silkworm form N-linked sugar chains at two sites
notes: also called Biotin tag sRAGE; Biotin-RAGE
Kd [4]: 220 nM

B7: single chain antibody γ+κ 96, pCANTAB5E clone 96 (phage presented and soluble forms) (scFv)
scFv: MAEVQLVESGAEAKKPGESLKISCKGSGYSFTTNWIGWVRQLPGKGLDWMGIIYPDDSDTRYSPSFQGQVTISADKSISTAYLQWNSLKASDTAMYYCARRQWGSFDLWGQGTMVTVSSGGGGSGGGGSGGGGSEIVLTQSPATLSLSPGERATLSCRASQSVSSFLAWYQQKPGQAPRLLIYGASSRATGIPDRFSGSGSGTDFTLTINRLEPEDFAVYYCQYYGSSGTFGQGTKVEIKR
notes: as for B3
A450 (fully oxidized LDL [3]): ≥ 0.6 A450

B8: E. coli form biotinylated sRAGE (Comparative Example 2) (receptor)
chain: AQNITARIGEPLVLKCKGAPKKPPQRLEWKLNTGRTEAWKVLSPQGGGPWDSVARVLPNGSLFLPAVGIQDEGIFRCQAMNRNGKETKSNYRVRVYQIPGKPEIVDSASELTAGVPNKVGTCVSEGSYPAGTLSWHLDGKPLVPNEKGVSVKEQTRRHPETGLFTLQSELMVTPARGGDPRPTFSCSFSPGLPRHRALRTAPIQPRVWEPVPLEEVQLVVEPEGGAVAPGGTVTLTCEVPAQPSPQIHWMKDGVPLPLPPSPVLILPEIGPQDQGTYSCVATHSSHGPQESRAVSISIIEPGEEGPTAGSGLNDIFEAQKIEWHE
notes: Not glycosylated; expressed in Origami B (DE3) together with a biotin ligase; also called E. coli form sRAGE; purified soluble biotinylated RAGE; not shown: His tag present at the N-terminus
Kd [4]: 280 nM
